Ends that are not written are not given here.

For this experiment, the target named is VBC ternary complex (pVHL, Elongin B, Elongin C) (UniProt P40337 1-213; Q15370 1-104; Q15369 17-112). As to the kind of experiment: BLI.
MSLKPRVA-NH2 [8-mer Cul2 peptide, Val8 replaced by alanine]: the Kd – broadly, the constant that tells how readily two partners part at equilibrium – amounted to 500 µM.

MSAKPRVV-NH2 [8-mer Cul2 peptide, Leu3 replaced by alanine] showed a Kd of 2900 µM.

On to ASLKPRVV-NH2 [8-mer Cul2 peptide, Met1 replaced by alanine], for which binding was characterised by a dissociation constant (Kd) of 2800 µM. The same measure for MALKPRVV-NH2 [8-mer Cul2 peptide, Ser2 replaced by alanine]: 7100 µM; for MSLKPRAV-NH2 [8-mer Cul2 peptide, Val7 replaced by alanine]: 2100 µM.

For the origin of these results see publication PMC5639367 (2017).
